# Reference: the Human Domainome abundance scans (Beltran et al. 2025)
# ± gives the uncertainty stated by the source.
# B1: Cullin-9, residues 2234 to 2275; numbered along this chain, Q8IWT3 (parent)
# chain: KRCPSCQAPIEKNEGCLHMTCAKCNHGFCWRCLKSWKPNHKD
# Variants of: B1
# Assay: abundance fitness (aPCA) (normalised: wild type 0, dead -1); higher = more abundant; growth selection in yeast, the domain comes from the species named
# Conditions: Homo sapiens
row,Variant,abundance fitness
1,KRCPSCQAPIEKNEGCLHMTCAKCNHGFCWRCLKSWKPNHKS,-0.387 ± 0.13
2,KRCPSCQAPIEKNEGCLHMTCAKCNHGFCWRCLKSWKPNHKM,-0.77 ± 0.37
3,KRCPSCQAPIEKNEGCLHMTCAKCNHGFCWRCLKSWKPNHKA,-0.117 ± 0.12
4,KRCPSCQAPIEKNEGCLHMTCAKCNHGFCWRCLKSWKPNHKE,-0.09 ± 0.13
5,KRCPSCQAPIEKNEGCLHMTCAKCNHGFCWRCLKSWKPNHKT,-0.073 ± 0.14
6,KRCPSCQAPIEKNEGCLHMTCAKCNHGFCWRCLKSWKPNHKK,-0.487 ± 0.37
7,KRCPSCQAPIEKNEGCLHMTCAKCNHGFCWRCLKSWKPNHKF,-0.729 ± 0.24
8,KRCPSCQAPIEKNEGCLHMTCAKCNHGFCWRCLKSWKPNHKP,-0.158 ± 0.19
9,KRCPSCQAPIEKNEGCLHMTCAKCNHGFCWRCLKSWKPNHKV,-0.359 ± 0.16
10,KRCPSCQAPIEKNEGCLHMTCAKCNHGFCWRCLKSWKPNHKC,0.214 ± 0.12
11,KRCPSCQAPIEKNEGCLHMTCAKCNHGFCWRCLKSWKPNHKL,-0.444 ± 0.15
12,KRCPSCQAPIEKNEGCLHMTCAKCNHGFCWRCLKSWKPNHKW,-0.692 ± 0.26
13,KRCPSCQAPIEKNEGCLHMTCAKCNHGFCWRCLKSWKPNHKR,-0.951 ± 0.2
14,KRCPSCQAPIEKNEGCLHMTCAKCNHGFCWRCLKSWKPNHKG,-0.21 ± 0.11
15,KRCPSCQAPIEKNEGCLHMTCAKCNHGFCWRCLKSWKDNHKD,-0.553 ± 0.28
16,KRCPSCQAPIEKNEGCLHMTCAKCNHGFCWRCLKSWKENHKD,0.184 ± 0.11
17,KRCPSCQAPIEKNEGCLHMTCAKCNHGFCWRCLKSWKMNHKD,-0.364 ± 0.2
18,KRCPSCQAPIEKNEGCLHMTCAKCNHGFCWRCLKSWKVNHKD,-0.212 ± 0.079
19,KRCPSCQAPIEKNEGCLHMTCAKCNHGFCWRCLKSWKANHKD,-0.114 ± 0.092

row,Variant,abundance fitness
1,KRCPSCQAPIEKNEGCLHMTCAKCNHGFCWRCLKSWKQNHKD,-0.163 ± 0.13
2,KRCPSCQAPIEKNEGCLHMTCAKCNHGFCWRCLKSWKRNHKD,-0.383 ± 0.077
3,KRCPSCQAPIEKNEGCLHMTCAKCNHGFCWRCLKSWKSNHKD,-0.26 ± 0.1
4,KRCPSCQAPIEKNEGCLHMTCAKCNHGFCWRCLKSWKLNHKD,-0.178 ± 0.11
5,KRCPSCQAPIEKNEGCLHMTCAKCNHGFCWRCLKSWKFNHKD,0.042 ± 0.26
6,KRCPSCQAPIEKNEGCLHMTCAKCNHGFCWRCLKSWKHNHKD,-0.867 ± 0.34
7,KRCPSCQAPIEKNEGCLHMTCAKCNHGFCWRCLKSWKCNHKD,-0.695 ± 0.19
8,KRCPSCQAPIEKNEGCLHMTCAKCNHGFCWRCLKSWKKNHKD,-0.379 ± 0.32
9,KRCPSCQAPIEKNEGCLHMTCAKCNHGFCWRCLKSWKTNHKD,-0.204 ± 0.19
10,KRCPSCQAPIEKNEGCLHMTCAKCNHGFCWRCLKSWKPNHHD,0.256 ± 0.21
11,KRCPSCQAPIEKNEGCLHMTCAKCNHGFCWRCLKSWKPNHND,-0.132 ± 0.37
12,KRCPSCQAPIEKNEGCLHMTCAKCNHGFCWRCLKSWKPNHED,0.281 ± 0.096
13,KRCPSCQAPIEKNEGCLHMTCAKCNHGFCWRCLKSWKPNHLD,-0.295 ± 0.12
14,KRCPSCQAPIEKNEGCLHMTCAKCNHGFCWRCLKSWKPNHMD,-0.373 ± 0.23
15,KRCPSCQAPIEKNEGCLHMTCAKCNHGFCWRCLKSWKPNHVD,0.255 ± 0.1
16,KRCPSCQAPIEKNEGCLHMTCAKCNHGFCWRCLKSWKPNHPD,0.318 ± 0.12
17,KRCPSCQAPIEKNEGCLHMTCAKCNHGFCWRCLKSWKPNHWD,-0.646 ± 0.15
18,KRCPSCQAPIEKNEGCLHMTCAKCNHGFCWRCLKSWKPNHCD,0.578 ± 0.28
19,KRCPSCQAPIEKNEGCLHMTCAKCNHGFCWRCLKSWKPNHTD,-0.277 ± 0.17

row,Variant,abundance fitness
1,KRCPSCQAPIEKNEGCLHMTCAKCNHGFCWRCLKSWKPNHAD,0.047 ± 0.081
2,KRCPSCQAPIEKNEGCLHMTCAKCNHGFCWRCLKSWKPNHRD,-0.128 ± 0.094
3,KRCPSCQAPIEKNEGCLHMTCAKCNHGFCWRCLKSWKPNHSD,-0.038 ± 0.12
4,KRCPSCQAPIEKNEGCLHMTCAKCNHGFCWRCLKSWKPKHKD,0.045 ± 0.14
5,KRCPSCQAPIEKNEGCLHMTCAKCNHGFCWRCLKSWKPLHKD,0.001 ± 0.078
6,KRCPSCQAPIEKNEGCLHMTCAKCNHGFCWRCLKSWKPRHKD,-0.071 ± 0.078
7,KRCPSCQAPIEKNEGCLHMTCAKCNHGFCWRCLKSWKPQHKD,-0.152 ± 0.11
8,KRCPSCQAPIEKNEGCLHMTCAKCNHGFCWRCLKSWKPAHKD,0.017 ± 0.08
9,KRCPSCQAPIEKNEGCLHMTCAKCNHGFCWRCLKSWKPSHKD,0.001 ± 0.12
10,KRCPSCQAPIEKNEGCLHMTCAKCNHGFCWRCLKSWKPYHKD,-0.384 ± 0.29
11,KRCPSCQAPIEKNEGCLHMTCAKCNHGFCWRCLKSWKPWHKD,-0.176 ± 0.087
12,KRCPSCQAPIEKNEGCLHMTCAKCNHGFCWRCLKSWKPGHKD,0.203 ± 0.073
13,KRCPSCQAPIEKNEGCLHMTCAKCNHGFCWRCLKSWKPVHKD,-0.095 ± 0.09
14,KRCPSCQAPIEKNEGCLHMTCAKCNHGFCWRCLKSWKPMHKD,-0.14 ± 0.13
15,KRCPSCQAPIEKNEGCLHMTCAKCNHGFCWRCLKSWKPFHKD,0.269 ± 0.26
16,KRCPSCQAPIEKNEGCLHMTCAKCNHGFCWRCLKSWKPCHKD,-0.093 ± 0.15
17,KRCPSCQAPIEKNEGCLHMTCAKCNHGFCWRCLKSWKPHHKD,-0.377 ± 0.14
18,KRCPSCQAPIEKNEGCLHMTCAKCNHGFCWRCLKSWKPTHKD,0.16 ± 0.096
